Paper PMC10652100, “Bacterial RNA-free RNase P: Structural and functional characterization of multiple oligomeric forms of a minimal protein-only ribonuclease P” (The Journal of Biological Chemistry, 2023)

Key:
[1] = target: the molecule itself; assay: SEC; oligomers seen when purifying Aq880 (Superdex 200 pg 16/600; 50 mM Tris pH 8.5, 150 mM NaCl, 1 mM TCEP)
[2] = target: the molecule itself; assay: native MS; His-tagged Hth1307 in 200 mM ammonium acetate pH 7, nano-electrospray, Q-Exactive UHMR; 500-1000 nM protein
[3] = target: the molecule itself; assay: crystal structure; lower molecular weight fraction of Hth1307; 2 M ammonium sulfate, 0.1 M Bis-Tris pH 5.5, 4 C; space group C2221, two protomers in the asymmetric unit; tetramer by crystal symmetry
[4] = target: the molecule itself; assay: SEC; analytical, Superdex 200 Increase 5/150 GL, 50 mM Tris pH 8.5, 150 mM NaCl, 1 mM TCEP; Hth1307 from 93.6 nM upwards; A280

B1: Aquifex aeolicus HARP (Aq880) (enzyme)
chain: MDVFVLDTSVFTNPEIYRTFEEDQRGAMETFIHLALNSRAEFYMPTSVYTEMRKIMDVGELWAEFEMVVKIRSPRRFQLTVPADFLYEFIEELRYRINKGLRIAEEHTREASGCEDVGKLIARLREKYREALRQGILDSKEDVDVLLLAYELDGVLVSADEGLRTWADKIGIKLIDPKNFKNILESLVRHRF
notes: HARP (RNA-free RNase P) of Aquifex aeolicus, Aq880, 23 kDa; gene synthesised by Integrated DNA Technologies; Cloned into pMCSG7 (N-terminal His6 tag and TEV site); the tag was removed with TEV protease, and residues of the site may be left at the N-terminus (surmised); also called HARP from A. aeolicus; Homolog of Aquifex RNase P; source: E. coli BL21 Rosetta DE3, purified (Ni-Sepharose, DEAE, …)
- stoichiometry N [1]: 4

B2: His-tagged Hth1307 (enzyme, Hydrogenobacter thermophilus)
chain: MDTFVLDTSVFTNPDVYHQFEEDQLGAIENFISLASHTNANFFMPTSVYYEFTKMVSLGDLAPKFELVVRIRSPRKWGLMVPAEFLYEFIEEVRYRINKGLRIAEEHTKEAGKLAEEEVGRVVNRLREKYREALRAGIIDSKEDVDVLLLSYELDAILVSGDEGLRKWADRVGIKLIDPKNLRYIMENLTKVGR
notes: HARP (RNA-free RNase P) of Hydrogenobacter thermophilus, Hth1307; gene synthesised by Integrated DNA Technologies; Same construct as m2 (pMCSG7, N-terminal His6 and TEV site) with the tag left on; also called His-tagged Hydrogenobacter thermophilus HARP; source: E. coli BL21 Rosetta DE3, purified; not shown: His6, N-terminal, kept; copies: 14
- stoichiometry N [2]: 14

B3: Hydrogenobacter thermophilus HARP (Hth1307) (enzyme)
chain: B2 chain
notes: HARP (RNA-free RNase P) of Hydrogenobacter thermophilus, Hth1307; gene synthesised by Integrated DNA Technologies; Cloned into pMCSG7 (N-terminal His6 tag and TEV site); the tag was removed with TEV protease by the general purification protocol; also called Ht HARP; source: E. coli BL21 Rosetta DE3, purified (Ni-Sepharose, DEAE, TEV cleavage, second Ni-Sepharose, SEC); not shown: His6, …
- stoichiometry N [3]: 4
- stoichiometry N [4]: 14
